# According to patent US20130079280A1 (MEDLMMUNE, published 2013):
# Positions count from the first letter of the chain named. Read-outs that look alike come from different tables or passages of the source.
# T1: Human CD40L, recombinant (E. coli produced) (human, UniProt P29965 113-261, limits assumed, His-tagged (capture ELISA) or biotinylated (AlphaScreen))
# T1 construct: also called HuCD40L; huCD40L
# T1 sequence (looked up): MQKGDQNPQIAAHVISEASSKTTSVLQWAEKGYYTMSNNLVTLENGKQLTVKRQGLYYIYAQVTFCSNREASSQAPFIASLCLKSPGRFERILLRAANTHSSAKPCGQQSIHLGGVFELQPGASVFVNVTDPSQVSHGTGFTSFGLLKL
# B1: 79, monovalent human CD40L-specific Tn3 (designed binder)
# chain: IEVKDVTDTTALITWIPPHNADSSIIGCELTYGIKDVPGDRTTIDLYDVAFDYSIGNLKPDTEYEVSLICDTFYGFDSNPAKETFTTGGGTLGHHHHHHHH
# notes: 8xHis-tagged, captured from E. coli media; also called 79 (79); clone 79
# B2: F4, TRAIL R2-binding Tn3 monomer (designed binder)
# chain: AIEVKDVTDTTALITWAKPWVDPPPLWGCELAYGIKDVPGDRTTIDLQQKHTAYSIGNLKPDTEYEVSLICFDPYGLKSRPAKETFTTGGGTLGHHHHHHHH
# notes: also called clone F4; original F4
# B3: A1 (1E11), monovalent TRAIL R2-specific Tn3 scaffold (designed binder)
# chain: B2 chain with L77A, R80N
# notes: His-tagged monomer expressed in E. coli; also called 1E11 monomer
# B4: F4 mod 1, cyno cross reactive TRAIL R2-binding Tn3 monomer (designed binder)
# chain: B2 chain with D46G
# notes: F4 with a D to G mutation two amino acids before the DE loop; also called F4 mod 1 monomer
# B5: F4 mod 12, germline engineered cyno cross reactive TRAIL R2-binding Tn3 monomer (designed binder)
# chain: SQIEVKDVTDTTALITWAKPWVDPPPLWGCELTYGIKDVPGDRTTIGLQQKHNQYSIGNLKPDTEYEVSLICFDPYGLKSRPAKETFTTGLGTLGHHHHHHHH
# notes: also called F4 mod 12 monomer
# B6: A3 (1E11), tetravalent linear tandem Tn3 (designed binder)
# chain: SGGGGSAIEVKDVTDTTALITWAKPWVDPPPLWGCELAYGIKDVPGDRTTIDLQQKHTAYSIGNLKPDTEYEVSLICFDPYGAKSNPAKETFTTGGGGSGGGGSGGGGSAIEVKDVTDTTALITWAKPWVDPPPLWGCELAYGIKDVPGDRTTIDLQQKHTAYSIGNLKPDTEYEVSLICFDPYGAKSNPAKETFTTGGGGSGGGGSGGGGSAIEVKDVTDTTALITWAKPWVDPPPLWGCELAYGIKDVPGDRTTIDLQQKHTAYSIGNLKPDTEYEVSLICFDPYGAKSNPAKETFTTGGGGSGGGGSGGGGSAIEVKDVTDTTALITWAKPWVDPPPLWGCELAYGIKDVPGDRTTIDLQQKHTAYSIGNLKPDTEYEVSLICFDPYGAKSNPAKETFTTGGGGSGGGGSGTLGHHHHHHHH
# B7: A2 (1E11), bivalent linear tandem Tn3 (designed binder)
# chain: SGGGGSAIEVKDVTDTTALITWAKPWVDPPPLWGCELAYGIKDVPGDRTTIDLQQKHTAYSIGNLKPDTEYEVSLICFDPYGAKSNPAKETFTTGGGGSGGGGSGGGGSAIEVKDVTDTTALITWAKPWVDPPPLWGCELAYGIKDVPGDRTTIDLQQKHTAYSIGNLKPDTEYEVSLICFDPYGAKSNPAKETFTTGGGGSGGGGSGTLGHHHHHHHH
# How the values were obtained:
# [1] = molecular target: T2, TRAIL R2, recombinant (format not stated) (human, UniProt O14763 54-182, limits assumed, biotinylated in the ELISAs of paragraph 539 and paragraph 556); test: capture ELISA; Tn3 captured on anti-His, biotinylated TRAIL R2
# T2 construct: also called biotinylated TRAIL R2; TRAIL R2 biotin
# Method: (§1) A 96-well MaxiSorb plate was coated with Qiagen anti-His antibody at 2 μg/ml overnight. The coated plate was blocked with PBS containing 0.1% v/v Tween-20 and 4% w/v skim milk powder (PBST 4% milk) for 1.5 hours. The coated plate was washed with PBST and diluted bacterial media (diluted 30-fold) containing soluble expressed proteins was added and plates were incubated at room temperature for 2 hours. […] The absorbance was read at 450 nm.
# [2] = molecular target: T3, human TRAIL R2-Fc fusion protein (human, UniProt O14763 54-182, limits assumed, biotinylated in the competition ELISA of Example 3); test: capture ELISA: His-tagged construct captured from E. coli media on anti-His antibody, biotinylated TRAIL R2 (axis: TrailR2-Fc) titrated, streptavidin-HRP/TMB
# T3 construct: also called biotinylated TRAIL R2-Fc; soluble TRAIL R2-Fc; not shown: Fc part
# Method: as §1
# [3] = molecular target: T3, human TRAIL R2-Fc fusion protein; test: competition ELISA: plate coated with F4 mod 1, 0.75 nM human TRAIL R2-Fc, purified monomer as competitor
# [4] = molecular target: T3, human TRAIL R2-Fc fusion protein; test: competition ELISA; F4 mod 1 coated plate, human TRAIL R2-Fc
# [5] = molecular target: T3, human TRAIL R2-Fc fusion protein; test: competition ELISA: plate coated with F4 mod 1, human TRAIL R2-Fc, monomer as competitor
# [6] = molecular target: T1, Human CD40L, recombinant (E. coli …); test: capture ELISA: His-tagged construct captured from E. coli media on anti-His antibody, His-tagged HuCD40L preincubated with biotinylated anti-His antibody titrated, streptavidin-HRP/TMB
# Method: as §1
# [7] = molecular target: T3, human TRAIL R2-Fc fusion protein; test: competition ELISA; plate coated with A9(1C12), 0.75 nM biotinylated TRAIL R2-Fc
# Method: Plates were blocked with PBS 0.1% Tween 20+10 mg/ml BSA. […] Absorbance was read at 450 nm.
# [8] = molecular target: T4, cynomolgus TRAIL R2-Fc (cynomolgus monkey (Macaca fascicularis)); test: competition ELISA; F4 mod 1 coated plate, cyno TRAIL R2-Fc
# T4 construct: the ELISAs used the Fc fusion; also called cyno TRAIL R2-Fc; cyno TRAIL-R2-Fc
# [9] = molecular target: T4, cynomolgus TRAIL R2-Fc; test: competition ELISA: plate coated with F4 mod 1, cyno TRAIL R2-Fc, monomer as competitor
# [10] = molecular target: T4, cynomolgus TRAIL R2-Fc; test: competition ELISA: plate coated with F4 mod 1, 0.75 nM cyno TRAIL R2-Fc, purified monomer as competitor
# [11] = molecular target: T5, human TRAIL R2 on the cell surface (H2122, Colo205, Jurkat and other tumor cell lines) (human, UniProt O14763 56-440); test: cell-based or functional assay
# [12] = molecular target: T5, human TRAIL R2 on the cell surface …; test: cell-based or functional assay; remark: listed apart in the source
# [13] = molecular target: T5, human TRAIL R2 on the cell surface …; test: cell-based or functional assay; remark: listed apart in the source
binder,measurement,setting,value
B1,binding result,[1],no binding
same,binding result,[2],no binding (tested: 0.2 ug/ml)
B2,IC50,[3],89 nM
same,"fold difference in binding among F4, F4 mod 1 and F4 mod 12",[4],≤ 6 fold
same,IC50,[5],89 nM
B3,binding result,[6],no binding (tested: 5.00E-02 ug/ml)
same,IC50,[7],16 nM
B4,fold difference in binding between F4 mod 1 and F4 mod 12,[8],≤ 2 fold
same,IC50,[3],15 nM
same,"fold difference in binding among F4, F4 mod 1 and F4 mod 12",[4],≤ 6 fold
same,IC50,[9],34 nM
same,IC50,[5],15 nM
same,IC50,[10],34 nM
B5,fold difference in binding between F4 mod 1 and F4 mod 12,[8],≤ 2 fold
same,"fold difference in binding among F4, F4 mod 1 and F4 mod 12",[4],≤ 6 fold
same,IC50,[9],50 nM
same,IC50,[5],22 nM
B6,"Maximum Inhibition %, H2122",[11],91%
same,potency in inhibiting H2122 cell viability relative to A9,[12],~150 fold
same,"Maximum Inhibition %, H2122",[13],91%
same,IC50,[7],0.4 nM
same,fold higher affinity relative to the monomeric A1 protein,[7],30 to 40 fold
same,fold lower IC50 than the monomer A1,[7],≥ 30 fold
B7,IC50,[7],0.5 nM
same,fold higher affinity relative to the monomeric A1 protein,[7],30 to 40 fold
same,fold lower IC50 than the monomer A1,[7],≥ 30 fold
